Data from patent US20030232753A1.
“And” between values parts separate entries of the source, which are not always exact repeats. Equal entries are not always repeated. Where two headings read alike, the source gives them in different places.

Legend:
Experiment in all cases: cell-based or functional assay
H6-N′-cys-tTF219 (human) [1] = target: H6-N′-cys-tTF219 (human) (UniProt P13726)
H6-tTF219-cys-C′ (human) = H6-tTF219-cys-C′ (human) (UniProt P13726)
H6-tTF220-cys-C′ (human) = H6-tTF220-cys-C′ (human) (UniProt P13726)
H6-tTF221-cys-C′ (human) [2] = target: H6-tTF221-cys-C′ (human) (UniProt P13726)
[3] = target: IgG-H6-N′-cys-tTF219 (human) (UniProt P13726)
[4] = target: tTF219, truncated Tissue Factor (extracellular domain of mature Tissue Factor, amino acids 1-219) (human) (UniProt P13726)
tTF220-cys-C′ (human) = tTF220-cys-C′ (human) (UniProt P13726)
tTF221-cys-C′ (human) = tTF221-cys-C′ (human) (UniProt P13726)
[5] = target: tTF219, truncated Tissue Factor (extracellular domain of mature Tissue Factor, amino acids 1-219) (human) (UniProt P13726); remark: listed apart in the source
[6] = target: H6-N′-cys-tTF219 dimer (human) (UniProt P13726)
H6-tTF221-cys-C′ (human) [7] = target: H6-tTF221-cys-C′ (human) (UniProt P13726); remark: listed apart in the source
[8] = target: H6-tTF221-cys-C′ dimer (human) (UniProt P13726)
[9] = target: tTF219, truncated Tissue Factor (extracellular domain of mature Tissue Factor, amino acids 1-219) (human) (UniProt P13726); remark: listed apart in the source
H6-N′-cys-tTF219 (human) [10] = target: H6-N′-cys-tTF219 (human) (UniProt P13726); remark: listed apart in the source
[11] = target: IgG-H6-N′-cys-tTF219 (human) (UniProt P13726); remark: listed apart in the source
[12] = target: tTF219, truncated Tissue Factor (extracellular domain of mature Tissue Factor, amino acids 1-219) (human) (UniProt P13726); remark: listed apart in the source

Sequence of tTF219, truncated Tissue Factor (extracellular domain of mature Tissue Factor, amino acids 1-219) (human) (P13726 other isoform, or with tags, fused parts or gaps): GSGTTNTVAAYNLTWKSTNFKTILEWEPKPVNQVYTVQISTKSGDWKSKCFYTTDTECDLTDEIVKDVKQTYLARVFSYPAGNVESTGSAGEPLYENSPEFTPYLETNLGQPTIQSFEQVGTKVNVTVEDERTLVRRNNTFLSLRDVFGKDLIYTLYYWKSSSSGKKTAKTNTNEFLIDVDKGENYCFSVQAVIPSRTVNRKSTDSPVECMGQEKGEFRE
Sequence of IgG-H6-N′-cys-tTF219 (human) (P13726 other isoform, or with tags, fused parts or gaps limits assumed): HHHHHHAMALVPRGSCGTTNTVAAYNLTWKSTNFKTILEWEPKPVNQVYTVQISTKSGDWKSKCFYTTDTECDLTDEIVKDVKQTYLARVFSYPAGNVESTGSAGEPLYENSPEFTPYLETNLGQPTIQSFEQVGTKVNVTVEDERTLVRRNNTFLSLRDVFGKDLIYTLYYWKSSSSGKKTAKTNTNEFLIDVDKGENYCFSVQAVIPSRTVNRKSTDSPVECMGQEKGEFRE
Sequence of H6-tTF221-cys-C′ dimer (human) (P13726 other isoform, or with tags, fused parts or gaps limits assumed): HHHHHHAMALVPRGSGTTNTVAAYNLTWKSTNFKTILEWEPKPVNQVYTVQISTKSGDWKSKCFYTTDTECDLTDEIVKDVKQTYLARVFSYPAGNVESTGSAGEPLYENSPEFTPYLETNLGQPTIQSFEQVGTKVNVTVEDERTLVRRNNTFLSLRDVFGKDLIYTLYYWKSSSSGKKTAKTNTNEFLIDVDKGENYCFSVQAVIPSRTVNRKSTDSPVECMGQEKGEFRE
Sequence of tTF220-cys-C′ (human) (P13726 other isoform, or with tags, fused parts or gaps): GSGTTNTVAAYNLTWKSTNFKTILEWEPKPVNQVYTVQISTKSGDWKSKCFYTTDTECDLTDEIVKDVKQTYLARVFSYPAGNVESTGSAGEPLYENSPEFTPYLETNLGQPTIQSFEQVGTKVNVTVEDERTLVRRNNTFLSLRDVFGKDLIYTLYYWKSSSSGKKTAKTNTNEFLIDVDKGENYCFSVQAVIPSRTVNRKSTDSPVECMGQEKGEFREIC
Sequence of tTF221-cys-C′ (human) (P13726 other isoform, or with tags, fused parts or gaps): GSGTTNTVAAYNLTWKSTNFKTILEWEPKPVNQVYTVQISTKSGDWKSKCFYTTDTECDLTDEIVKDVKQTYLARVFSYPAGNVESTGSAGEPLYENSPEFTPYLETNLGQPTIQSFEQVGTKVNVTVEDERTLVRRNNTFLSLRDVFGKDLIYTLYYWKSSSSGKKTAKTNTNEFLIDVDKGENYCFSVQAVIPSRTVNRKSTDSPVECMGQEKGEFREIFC
Sequence of H6-tTF219-cys-C′ (human) (P13726 other isoform, or with tags, fused parts or gaps): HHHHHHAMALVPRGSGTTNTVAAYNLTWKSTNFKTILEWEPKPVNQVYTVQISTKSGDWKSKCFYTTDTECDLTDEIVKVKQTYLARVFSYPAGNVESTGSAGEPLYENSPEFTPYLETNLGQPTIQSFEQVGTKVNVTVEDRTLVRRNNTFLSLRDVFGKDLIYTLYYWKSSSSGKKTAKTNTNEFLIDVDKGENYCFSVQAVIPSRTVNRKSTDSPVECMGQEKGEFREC

- tTF concentration giving coagulation in 50 seconds (H6-N′-cys-tTF219 (human) [1]): 3 nM
- tTF concentration giving coagulation in 50 seconds (H6-tTF219-cys-C′ (human)): 3 nM
- tTF concentration giving coagulation in 50 seconds (H6-tTF220-cys-C′ (human)): 500 pM
- tTF concentration giving coagulation in 50 seconds (H6-tTF221-cys-C′ (human) [2]): 500 pM
- fold less active than H6-N′-cys-tTF219 at inducing Xa formation [3]: 2 fold
- clotting time [4]: 60 s
- clotting time (time for the first fibrin strands to form), mouse plasma on A20 cells [4]: 36 s
- tTF concentration giving coagulation in 50 seconds [4]: 500 pM
- tTF concentration giving coagulation in 50 seconds (tTF220-cys-C′ (human)): 500 pM
- tTF concentration giving coagulation in 50 seconds (tTF221-cys-C′ (human)): 500 pM
- tTF concentration giving coagulation in 50 seconds [5]: 3 nM
- tTF concentration giving coagulation in 50 seconds [6]: 100 pM and 200 pM
- tTF concentration giving coagulation in 50 seconds (H6-tTF221-cys-C′ (human) [7]): 1 nM
- fold less active than H6-tTF221-cys-C′ monomer or tTF219 at inducing coagulation [8]: 4 fold
- tTF concentration giving coagulation in 50 seconds [8]: 4 nM
- tTF concentration giving coagulation in 50 seconds [9]: 100 pM and 200 pM
- tTF concentration giving coagulation in 50 seconds (H6-N′-cys-tTF219 (human) [10]): 1 nM
- fold reduction of coagulation inducing activity relative to unconjugated H6-N′-cys-tTF219 or tTF219 [11]: 5 fold
- tTF concentration giving coagulation in 50 seconds [11]: 5 nM
- tTF concentration giving coagulation in 50 seconds [12]: 1 nM
Substance: B21-2/10H10 bispecific antibody (Fab′ arm of the B21-2 antibody, specific for I-A^d, linked to the Fab′ arm of the 10H10 antibody, specific for tTF)
